PMC12578639

Tests used:
[1] = target: ThsB2-His6 (Sau–Thoeris ThsB2 with a C-terminal hexahistidyl tag) (Staphylococcus aureus 08BA02176); experiment: SEC + other: mass photometry; complex assembled from individually purified subunits in the presence of NAD+; Superdex 200 Increase 10/300 GL, 25 mM Tris pH 7.5, 200 mM NaCl, 5% glycerol, 1 mM dithiothreitol; peaks analysed by SDS–PAGE; mass photometry at 100–200 nM
[2] = target: His6-ThsB1 (Sau–Thoeris ThsB1 with an N-terminal hexahistidyl tag) (Staphylococcus aureus 08BA02176); experiment: as above

Question: With “ThsB2-His6 (Sau–Thoeris ThsB2 with a C-terminal hexahistidyl tag) (natural protein)” as the molecule, how does the stoichiometry N [1] read?
Answer: 2

B1: Major head protein (Mhp) of phage Φ80α, gp47 (natural protein)
chain: ASNNVKPQVFNPDNVMMHEKKDGTLMNEFTTPILQEVMENSKIMQLGKYEPMEGTEKKFTFWADKPGAYWVGEGQKIETSKATWVNATMRAFKLGVILPVTKEFLNYTYSQFFEEMKPMIAEAFYKKFDEAGILNQGNNPFGKSIAQSIEKTNKVIKGDFTQDNIIDLEALLEDDELEANAFISKTQNRSLLRKIVDPETKERIYDRNSDSLDGLPVVNLKSSNLKRGELITGDFDKLIYGIPQLIEYKIDETAQLSTVKNEDGTPVNLFEQDMVALRATMHVALHIADDKAFAKLVPADKRTDSVPGEV
Question: Which stoichiometry N [2] does the source give for B1 here?
Answer: 1
